Test results taken from US20110286916A1 (published 2011).

Columns and labels:
[1] = molecular target: T1, human full-length Notch1 with C-terminal FLAG tag, stably expressed on 293 FlpIn (TREx) cells (human, UniProt P46531 19-2555); test: FACS, phage scFv
T1 construct: tetracycline/doxycycline-induced expression from pcDNA5/FRT/TO-HN1+FLAG; also called hN1; 293_N1

[2] = molecular target: T2, human full-length Notch3 with C-terminal FLAG tag, stably expressed on 293 FlpIn (TREx) cells (human, UniProt Q9UM47 40-2321); test: FACS, phage scFv
T2 construct: whole, on cells; made by the same strategy as the Notch1 line; also called 293-N3; hN3

| Binder | binding result [1] | binding result [2] |
| --- | --- | --- |
| hN1S3-030 (scFv, V domains shown, phage scFv) VH: not shown VL: QSVLTQPPSASGTPGQRVSISCSGSSSNIGSNYVYWYQQLPGTAPKVLVYRNNQRPSGVSDRFSGSKYGTSASLAISGLRSEDEADYYCGSWDDSLSGVVFGGGTKVTVL | binds | binds |
| hN1S3-112 (scFv, V domains shown, phage scFv) VH: not shown VL: LPVLTQPPSASGTPGQRVTISCSGSSSNIGNNYVYWYQQLPGTAPKLLIYRNNQRPSGVPDRFSASKSGTSASLVISGIRSEDEAEYYCGGWDDSLSGQVVFGGGTKLTVL | binds | binds |
| hN1S3-088 (scFv, V domains shown, phage scFv) VH: not shown VL: QSVLTQPPSVSGTPGQRVTISCSGSSSNIGNDVVNWYQQLPGTAPKLLIYNDYQRPSGVSDRFSGSKSGTSAYLAISGLQSEDEADYHCAVWDDSLDGWVFGGGTKLTVL | binds | binds |
| hN1S3-003 (scFv, V domains shown, phage scFv) VH: EVQLVQSGPEVKKPGTSVKVSCKASGFTFTNSAVQWVRQARGQRLEWIGWIVVGSGNTNYAQKFQERVTITRDMSTSTAYMELSSLKSEDTAVYYCVADTVYWGQGTLVTVSS VL: not shown | binds | binds |
| hN1S3-040 (scFv, V domains shown, phage scFv) VH: EVQLVQSGPEVKKPGTSVKVSCKASGFTFTSSAVQWVRQARGQRLEWIGWIVVGSGNTNYAQKFQERVTITRDMSTSTAYMELSSLRSEDTAVYYCVADTVYWGRGTTVTVSS VL: QSVLTQPPSASGTPGQGVTISCSGSSSNIGRNSVNWYQQLPGTAPKLLIYGDNQRPSGVPDRFSGSKPGTSASLAISGLQSDDEAHYYCAAWDDSLNGWVFGGGTKVTVL | binds | binds |
| N1wc11 (scFv, V domains shown, phage scFv) VH: EVQLVQSGPEVKKPGTSVKVSCKASGFTFTNSAVQWVRQARGQRLEWIGWIVVGSGNINYAQKFQERVTITRDMSTSTAYMELSSLKSEDTAVYYCVADTVYWGRGTMVTVSS VL: not shown | binds | binds |
| hN1S3-091 (scFv, V domains shown, phage scFv) VH: EVQLVQSGAEVKKPGASVKVSCKASGYNFTGYYMHWVRQAPGQGLEWMGWINPNSGGTNYAQKFQGRVTMTRDTSISTAYMELSRLRSDDTAVYYCATDSFDYWGQGTMVTVSS VL: QSVLTQPPSATGTPGQTVSISCSGGNSNIGSNYVSWYQQLPGTAPKLLIYSNNQRPSGVPDRFSGSKSGTSASLAISGLQSEDEADYYCAAWDDSLNGHIFGTGTKLTVL | binds | binds |
| hN1S3-053 (scFv, V domains shown, phage scFv) VH: EVQLVQSGAEVKKPGASVKVSCKASGYNFTGYYMHWVRQAPGQGLEWMGWINPNSGGTNYAQKFQGRVTMTRDTSISTAYMELSRLRSDDTAVYYCATDSFDYWGRGTTVTVSS VL: QAVLTQPSSVSGAPGQRVTISCTGSRSNIGAGYDVHWYQQLPGTAPKLLIYGNSNRPSGVPDRFSGSKSGTSASLAITGLQAEDEADYYCQSYDSSLSGSVFGGGTKLTVL | binds | binds |
| hN1S3-177 (scFv, V domains shown, phage scFv) VH: EVQLVQSGAEVKKPGASVKVSCKASGYNFTGYYMHWVRQAPGQGLEWMGWINPNSGGANYAQKFQGRVTMTRDTSISTAYMELSRLRSDDTAVYYCATDSFDYWGRGTLVTVSS VL: QAVLTQPSSASGTPGQRVTISCSGSSSNIGTNYVYWYQHLPGMAPKLLLYSNNQRPSGVPDRFSGSKSGPSASLAISGLRSEDEADYYCAAWDDSLSGLVFGGGTKLTVL | binds | binds |
| hN1S3-006 (scFv, V domains shown, phage scFv) VH: QVQLVQSGAEVKKPGASVKVSCKASGYNFTGYYIHWVRQAPGQGLEWMGWINPNSGGTNYAQKFQGRVIMTRDTSISTAYMELSRLRSDDTAVYYCATDSFDYWGRGTLVTVSS VL: QAVLTQPSSASGTAGQRVTISCSGSNSNIGSNTVNWYQQLPGTTPKLLIYSNNERPSGVPDRFSGSKSGTSASLAISGLQSDDEADYYCAAWDDSLNGYVFGTGTKVTVL | binds | binds |
| hN1S3-136 (scFv, V domains shown, phage scFv) VH: QVQLQESGAEVKKPGASVKVSCKASGYNFTGYYMHWVRQAPGQGLEWMGWINPNSGGTNYAQKFQGRVTMTRDTSISTAYMELSRLRSDDTAVYYCATDSFDYWGRGTTVTVSS VL: QAVLTQPSSESGTPGQRVTISCSGTTSNIGDNTVTWYQQLPGTAPKLLIYSNTQRPSGVPARFSGSKSGTSASLAISGLQSGDEADYYCAAWDDSRNGYVFGTGTKLTVL | binds | binds |
| hN1S3-127 (scFv, V domains shown, phage scFv) VH: EVQLVQSGAEVKKPGASVKVSCKASGYNFTGYYMHWVRQAPGQGLEWMGWINPNSGGTNYAQKFQGRVTMTRDTSISTAYMELSRLRSDDTAVYYCATDSFDYWGQGTLVTVSS VL: QSVLTQPPSVSGAPGQRVTISCSGSTSNIGGNPVTWYQQFPGTAPKLLVYRDNQRPSGVADRFSGSRSGTSASLAISGLQSEDEADFYCASWDDSLGGVVFGGGTKLTVL | binds | binds |
| hN1S3-181 (scFv, V domains shown, phage scFv) VH: not shown VL: SYVLTQPPSASGTPGQRVTISCSGSSPNIGSNTVNWYQQLPGTAPKLLIYTNNQRPSGVPDRFSGSKSATSASLAISGLQFDDEADYFCAAWDDSLLGVVFGGGTKVTVL | binds | binds |
| hN1S3-096 (scFv, V domains shown, phage scFv) VH: EVQLVQSGAEVKKPGASVKVSCKASGYNFTGYYMHWVRQAPGQGLEWMGWINPNSGGTNYAQKFQGRVTMTRDTSISTAYMELSRLRSDDTAVYYCATDSFDYWGRGTTVTVSS VL: QPVLTQPPSASGTPGQRVTISCSGSSSNIASNSVYWYQQLPGTAPKLLIYRNNQRPSGVPDRFSGSQSGASASLAISGLRSEDEADYYCAAWDDNLYGVVFGGGTKLTVL | binds | binds |
| hN1S3-124 (scFv, V domains shown, phage scFv) VH: EVQLVQSGAEVKKPGASVKVSCKASGYNFTGYYMHWVRQAPGQGLEWMGWINPNSGGTNYAQKFQGRVTMTRDTSISTAYMELSRLRSDDTAVYYCATDSFDYWGRGTTVTVSS VL: not shown | binds | binds |
| hN1S3-095 (scFv, V domains shown, phage scFv) VH: EVQLVQSGAEVKKPGASVKVSCKASGYNFTGYYMHWVRQAPGRGLEWMGWINPNSGGTNYAQKFQGRVTMTRDTSISTAYMELSRLRSDDTAVYYCATDSFDYWGQGTLVTVSS VL: not shown | binds | binds |
| hN1S3-032 (scFv, V domains shown, phage scFv) VH: EVQLVQSGAEVKKPGASVKVSCKASGYNFTGYYMHWVRQAPGQGLEWMGWINPNSGGTNYAQKFQGRVTMTRDTSISTAYMELSRLRSDDTAVYYCATDSFDYWGKGTLVTVSS VL: QAVLTQPSSVSGAPGQRVTISCTGSSSNIGAGYDVHWYRQLPGTAPKLLLYGNDNRPSGVPDRFSGSKSGASASLAITGLRADDEADYYCQSYDSSLSGSVFGGGTKVTVL | binds | binds |
| hN1S3-092 (scFv, V domains shown, phage scFv) VH: EVQLVQSGAEVKKPGASVKVSCKASGYNFTGYYMHWVRQAPGQGLEWMGWINPNSGGTNYAQKFQGRVTMTRDTSISTAYMELSRLRSDDTAVYYCATDSFDYWGQGTLVTVSS VL: QSVLTQPPSASGTPGQRVTISCSGSSSNIGANYVYWYQQLPGTAPKLLIYKNDQRPSGVPDRFSGSKSGTSASLAISGLRSEDEADYYCAAWDDSLSGLVFGGGTKVTVL | binds | binds |
| hN1S3-182 (scFv, V domains shown, phage scFv) VH: not shown VL: QAVLTQPSSVSGAPGQRVTISCTGSSSNIGSPYDVNWYQQFPGTAPKLLIYGNINRPSGVPDRFSGSKSGTSASLAITGLQAEDEADYYCQTYDSTLNGAVFGGGTKLTVL | binds | binds |
| hN1S3-087 (scFv, V domains shown, phage scFv) VH: QVQLVQSGAEVKKPGASVRISCKTSGFTFTSYFIHWVRQAPGQRPEWMGVINPSRGNADYAPRFRGRVTMTRDKSTHTVYMDLKSLRSDDAAIYYCARDRLGGLLDYYDSSDSSKNFDAFDFWGQGTLVTVSS VL: NFMLTQPHSVSESPGKTVTISCTRSSGSIGSSYVQWYQQRPGTSPVTIIYEDSQRPSGVPDRFSGSIDNSANSASLTISGLKTEDEADYYCQSYDANNRVFGGGTKLTVL | binds | binds |
| hN1S3-002 (scFv, V domains shown, phage scFv) VH: GVQLVQSGAEVKKPGASVKVSCKASGYTFTDYYVHWVRQAPGQGPEWMGWINPNNGGTKYAQKFQGRVTMTTDTSTSTAYMELRSLRSDDTALYYCARDLLPYYGDYRADKIDDFDIWGRGTLVTVSS VL: QSVLTQPPSASGTPGQRVTISCSGSSSNIGSNTVNWYQRLPGAAPQLLIYNNDQRPSGIPDRFSGSKSGTSGSLVISGLQSEDEADYYCASWDDSLNGRVFGGGTKLTVL | binds | binds |
| hN1S3-007 (scFv, V domains shown, phage scFv) VH: not shown VL: QAVLTQPSSVSGTPGQRVTMSCSGGRSNIGSNAVNWYQQFPGTAPKLLMYNTNQRPSGVPGRFSGSKSGASASLAISGLQSDDEADYYCSSWDDSLNGLEFGGGTKLTVL | binds | binds |
| N1wc266 (scFv, V domains shown, phage scFv) VH: not shown VL: QAVLTQPSSVSGTPGQRVTMSCSGGRSNIGSNAVNWYQQFPGTAPKLLMYNTNQRPSGVPGRFSGSKSGASASLAISGLQSDDEADYYCSSWDDSLNGLEFGGGTKLEIK | binds | binds |
